Measurements: patent US20220242950A1 (CANTARGIA, published 2022)
Residue numbers refer to the chain shown, from its start.

Tests used:
[1] = target: T1, recombinant hIL1RAP Domain1+2+3 (aa21-367) (human, UniProt Q9NPH3 21-367); assay: bio-layer interferometry, human IL1RAP
T1 construct: Numbering on Uniprot Q9NPH3
T1 sequence (looked up): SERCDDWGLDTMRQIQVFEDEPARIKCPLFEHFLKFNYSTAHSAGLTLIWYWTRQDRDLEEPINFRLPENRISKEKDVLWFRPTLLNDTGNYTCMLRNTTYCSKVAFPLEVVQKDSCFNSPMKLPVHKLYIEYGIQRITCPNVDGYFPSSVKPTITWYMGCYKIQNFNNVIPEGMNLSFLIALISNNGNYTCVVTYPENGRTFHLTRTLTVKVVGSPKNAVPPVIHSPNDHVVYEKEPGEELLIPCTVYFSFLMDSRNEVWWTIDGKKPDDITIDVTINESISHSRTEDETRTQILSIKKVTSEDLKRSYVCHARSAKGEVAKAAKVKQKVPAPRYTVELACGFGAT
Description: (§1) Affinity measurements were done on BLItz™ Label-Free Protein Analysis System from ForteBio, using the Basic Kinetics module in the BLItz Pro 1.3.1.3 software from Molecular Devices. Protein A biosensors were hydrated in blocking buffer (PBS, 0.5% BSA, 0.05% Tween 20, pH 7.4) for minimum 10 min at room temperature before coating. Protein A biosensors were coated with antibodies by dipping the biosensors in 200 μl of antibody solution (10 μg/ml in blocking buffer) for 30 min at room temperature. The sensors were then incubated in 200 μl blocking buffer for at least 10 min before use. […] The baseline was made in blocking buffer with a duration time of 30 sec. Association was made for 120 sec in hIL1RAP followed by 120 sec dissociation in blocking buffer.
KD values for affinity towards human IL1RAP are shown in Table 17 for the de-immunized h48D2 variants. Affinity was measured using bio-layer interferometry. […] See also Table 4 for a direct comparison of 48D2, humanized 48D2, and de-immunized h48D2.

[2] = target: T2, human IL1RAP on the cell surface (human, UniProt Q9NPH3 21-570); assay: cell-based or functional assay
T2 sequence (looked up): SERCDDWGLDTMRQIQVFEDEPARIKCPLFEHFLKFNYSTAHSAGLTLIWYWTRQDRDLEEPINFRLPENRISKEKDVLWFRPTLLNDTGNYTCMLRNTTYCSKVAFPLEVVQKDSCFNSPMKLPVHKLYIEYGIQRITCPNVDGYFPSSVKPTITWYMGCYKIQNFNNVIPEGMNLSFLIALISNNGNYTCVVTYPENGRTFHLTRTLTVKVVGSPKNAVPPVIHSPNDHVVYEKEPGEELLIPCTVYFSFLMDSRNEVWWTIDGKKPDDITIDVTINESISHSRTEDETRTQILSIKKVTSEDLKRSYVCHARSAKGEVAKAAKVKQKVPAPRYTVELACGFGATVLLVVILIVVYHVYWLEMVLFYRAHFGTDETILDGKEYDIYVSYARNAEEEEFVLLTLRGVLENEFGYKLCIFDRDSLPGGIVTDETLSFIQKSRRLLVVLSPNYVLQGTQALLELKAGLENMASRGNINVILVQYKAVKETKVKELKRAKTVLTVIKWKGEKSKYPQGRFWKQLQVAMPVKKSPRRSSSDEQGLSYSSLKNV

[3] = target: T3, recombinant mf IL1RAP aa21-367 (cynomolgus monkey (Macaca fascicularis), UniProt A0A2K5X5J5 21-367); assay: indirect ELISA on coated IL1RAP, goat anti-human antibody-alkaline phosphatase, absorbance at 405 nm
T3 construct: also called cynomolgus monkey IL1RAP; cyno IL1RAP
T3 sequence: T1 sequence (looked up) with L183F, T273P, K326T

[4] = target: T1, recombinant hIL1RAP Domain1+2+3 …; assay: as above
pig IL1RAP = target: T4, pig IL1RAP (pig (Sus scrofa), UniProt A0A287B9B9 21-357); assay: as above
T4 construct: also called ssIL1RAP
T4 sequence (A0A287B9B9 entry or part of it limits assumed): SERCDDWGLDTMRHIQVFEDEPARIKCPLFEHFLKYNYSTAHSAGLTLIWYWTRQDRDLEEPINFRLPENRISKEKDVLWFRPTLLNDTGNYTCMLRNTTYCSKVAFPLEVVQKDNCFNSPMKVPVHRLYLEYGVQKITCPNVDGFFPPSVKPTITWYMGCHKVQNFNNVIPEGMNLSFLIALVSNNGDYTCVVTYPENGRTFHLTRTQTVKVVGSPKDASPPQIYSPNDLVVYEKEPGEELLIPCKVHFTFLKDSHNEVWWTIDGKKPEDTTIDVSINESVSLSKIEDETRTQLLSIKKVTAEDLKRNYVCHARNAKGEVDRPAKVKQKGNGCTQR

rat IL1RAP = target: T5, rat IL1RAP (rat (Rattus norvegicus), UniProt Q63621 21-367, limits assumed); assay: as above
T5 construct: also called rnIL1RAP
T5 sequence (looked up): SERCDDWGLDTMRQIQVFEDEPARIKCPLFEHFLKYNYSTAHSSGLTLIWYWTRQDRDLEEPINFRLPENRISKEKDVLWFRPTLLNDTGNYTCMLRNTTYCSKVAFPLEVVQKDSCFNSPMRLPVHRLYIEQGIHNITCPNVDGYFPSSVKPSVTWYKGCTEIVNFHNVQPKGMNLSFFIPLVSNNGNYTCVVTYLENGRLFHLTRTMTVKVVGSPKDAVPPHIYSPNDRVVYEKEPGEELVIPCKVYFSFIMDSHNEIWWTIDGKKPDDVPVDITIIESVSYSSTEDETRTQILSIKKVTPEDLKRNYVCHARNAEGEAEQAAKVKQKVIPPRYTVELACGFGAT

mouse IL1RAP = target: T6, mouse IL1RAP (mouse (Mus musculus), UniProt Q61730 21-367, limits assumed); assay: as above
T6 construct: Coated ortholog in the cross reactivity ELISA; also called mIL1RAP; murine IL1RAP
T6 sequence (looked up): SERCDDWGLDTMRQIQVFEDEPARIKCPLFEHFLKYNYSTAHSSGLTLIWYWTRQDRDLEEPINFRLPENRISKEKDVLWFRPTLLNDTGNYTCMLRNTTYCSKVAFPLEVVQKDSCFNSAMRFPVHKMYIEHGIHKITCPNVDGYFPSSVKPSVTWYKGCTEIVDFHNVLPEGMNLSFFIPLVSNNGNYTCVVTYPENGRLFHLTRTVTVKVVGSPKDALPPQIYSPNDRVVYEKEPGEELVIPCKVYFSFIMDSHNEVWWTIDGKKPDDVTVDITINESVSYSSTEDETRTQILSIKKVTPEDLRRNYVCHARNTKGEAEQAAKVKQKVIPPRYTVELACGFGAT

[5] = target: T1, recombinant hIL1RAP Domain1+2+3 …; assay: BLI (BLItz), antibody on Protein A biosensor, hIL1RAP (21-367) in solution
Description: as §1
Affinity measurement results are shown in Table 4 for chimeric 48D2, as well as for humanized 48D2 variant VH5:VL4 (see Example 11) and for humanized and de-immunized 48D2 variant VH5.GL:VL4 (see Example 13). kₐ is the association rate constant, for characterization of the antibody binding to the target, kd is the dissociation rate constant, for characterization of the antibody dissociation from the target, and KD is the equilibrium dissociation constant between the antibody and its antigen, the ratio of kd/kₐ. […] The lower the KD value (lower concentration), the higher the affinity.

[6] = target: T2, human IL1RAP on the cell surface; assay: cell-based or functional assay; remark: listed apart in the source

B1: h48D2 VH5.GL:VL4 (antibody, human IgG1, kappa, L234A L235A, V domains shown)
VH: QEQLEESGGGLVKPGGTLSLTCTVSGPSLSHFDITWIRQPPGKGLEWIGTISPGVSTYYASWAKSRVTISVDTSLNTVSLKLSSVTAADTATYFCARGGVGSSWKAFDLWGPGTLVTISS
VL: ELVMTQSPSSVSASVGDRVTITCQASESISTALAWYQQKPGKAPKLLIYKASTLPSGVPSRFSGSGSGTDFTLTINSLQPEDFATYYCQQGFSSGNVHNAFGGGTKVEIKR
notes: Humanized and de-immunized; also called VL4:VH5.GL; 48D2 variant VH5.GL:VL4
[1]
  Kd: 2.53 nM
[2]
  IC50 of IL-33 signaling (HEK-Blue cells stably transfected with the IL-36 receptor): 0.324 nM
  IC50 of IL-36α signaling (HEK-Blue cells stably transfected with the IL-36 receptor): 0.0557 nM
  IC50 of IL-36β signaling (HEK-Blue cells stably transfected with the IL-36 receptor): 0.161 nM
  IC50 of IL-36γ signaling (HEK-Blue cells stably transfected with the IL-36 receptor): 0.088 nM
[3]
  EC50 (read off the curve): ~0.05 µg/mL
[4]
  EC50 (read off the curve): ~0.05 µg/mL
Pig IL1RAP
  EC50 (read off the curve): ~0.05 µg/mL
Rat IL1RAP
  binding result: no binding (tested: 4000 ng/mL)
Mouse IL1RAP
  binding result: no binding (tested: 4000 ng/mL)
[5]
  Kd: 2.53 nM
  koff: 0.000197 s⁻¹
  kon: 78000 M⁻¹ s⁻¹
[6]
  IC50 of IL-1α signaling (HEK-Blue assay): 0.268 nM
  IC50 of IL-1β signaling (HEK-Blue assay): 0.097 nM
  IC50 of IL-33 signaling (HEK-Blue assay): 7.51 nM
  IC50 of IL-36α signaling (HEK-Blue assay): 0.147 nM
  IC50 of IL-36β signaling (HEK-Blue assay): 0.169 nM
  IC50 of IL-36γ signaling (HEK-Blue assay): 0.206 nM
